Results reported in article PMC9108626, “Mammalian UPF3A and UPF3B can activate nonsense‐mediated mRNA decay independently of their exon junction complex binding” (The EMBO Journal, 2022).

B1: FLAG‐tagged human UPF3A (stably expressed in 3^DKO#2 cells) (natural protein, UniProt Q9H1J1 1-476, looked up)
chain: MRSEKEGAGGLRAAVAARGPSGREKLSALEVQFHRDSQQQEAETPPTSSSGCGGGAGKPREEKRTALSKVVIRRLPPGLTKEQLEEQLRPLPAHDYFEFFAADLSLYPHLYSRAYINFRNPDDILLFRDRFDGYIFLDSKGLEYPAVVEFAPFQKIAKKKLRKKDAKTGSIEDDPEYKKFLETYCVEEEKTSANPETLLGEMEAKTRELIARRTTPLLEYIKNRKLEKQRIREEKREERRRRELEKKRLREEEKRRRREEERCKKKETDKQKKIAEKEVRIKLLKKPEKGEEPTTEKPKERGEEIDTGGGKQESCAPGAVVKARPMEGSLEEPQETSHSGSDKEHRDVERSQEQESEAQRYHVDDGRRHRAHHEPERLSRRSEDEQRWGKGPGQDRGKKGSQDSGAPGEAMERLGRAQRCDDSPAPRKERLANKDRPALQLYDPGARFRARECGGNRRICKAEGSGTGPEKREEAE
notes: UPF3A, human, CCDS9543.1; wild type; domains are defined over residues 2-476; cloned in pcDNA3ez-FLAG and moved to a Tet-ON PiggyBac plasmid; also called hUPF3A; FLAG‐UPF3A
B2: UPF3B (endogenous, HeLa Tet‐off) (natural protein, human (endogenous in HeLa), UniProt Q9BZI7 1-483, looked up)
chain: MKEEKEHRPKEKRVTLLTPAGATGSGGGTSGDSSKGEDKQDRNKEKKEALSKVVIRRLPPTLTKEQLQEHLQPMPEHDYFEFFSNDTSLYPHMYARAYINFKNQEDIILFRDRFDGYVFLDNKGQEYPAIVEFAPFQKAAKKKTKKRDTKVGTIDDDPEYRKFLESYATDNEKMTSTPETLLEEIEAKNRELIAKKTTPLLSFLKNKQRMREEKREERRRREIERKRQREEERRKWKEEEKRKRKDIEKLKKIDRIPERDKLKDEPKIKVHRFLLQAVNQKNLLKKPEKGDEKELDKREKAKKLDKENLSDERASGQSCTLPKRSDSELKDEKPKRPEDESGRDYREREREYERDQERILRERERLKRQEEERRRQKERYEKEKTFKRKEEEMKKEKDTLRDKGKKAESTESIGSSEKTEKKEEVVKRDRIRNKDRPAMQLYQPGARSRNRLCPPDDSTKSGDSAAERKQESGISHRKEGGEE
notes: UPF3B, human, endogenous in HeLa Tet-off cells; source: endogenous, HeLa Tet-off lysate
B3: UPF3A (endogenous, UPF3B knockout HeLa Tet‐off) (natural protein, human (endogenous in HeLa), UniProt Q9H1J1 1-476, looked up)
chain: B1 chain
notes: UPF3A, human, endogenous in HeLa Tet-off cells; source: endogenous, 3B^KO#3 HeLa Tet-off lysate
B4: UPF3A (endogenous, HCT116) (natural protein, human (endogenous in HCT116), UniProt Q9H1J1 1-476, looked up)
chain: B1 chain
notes: UPF3A, human, endogenous in HCT116 cells; source: endogenous, HCT116 lysate (WT, 3B^Δ2BD, 3B^KO cells)

Columns and labels:
Conditions in all cases: partners not purified
[1] = molecular target: T1, EIF4A3 (endogenous, HCT116) (human (endogenous in HCT116), UniProt P38919 1-411); assay: co-IP; EIF4A3-IP from 3^DKO#2 HCT116 cells stably expressing FLAG-tagged UPF3 proteins, UPF3A chimeras or EGFP; FLAG-tagged proteins quantified against EIF4A3; immunoblot
T1 construct: EIF4A3, human, core factor of the exon junction complex, endogenous in HCT116 cells; also called core EJC factor EIF4A3; source: endogenous, HCT116 lysate
T1 sequence (P38919 whole entry): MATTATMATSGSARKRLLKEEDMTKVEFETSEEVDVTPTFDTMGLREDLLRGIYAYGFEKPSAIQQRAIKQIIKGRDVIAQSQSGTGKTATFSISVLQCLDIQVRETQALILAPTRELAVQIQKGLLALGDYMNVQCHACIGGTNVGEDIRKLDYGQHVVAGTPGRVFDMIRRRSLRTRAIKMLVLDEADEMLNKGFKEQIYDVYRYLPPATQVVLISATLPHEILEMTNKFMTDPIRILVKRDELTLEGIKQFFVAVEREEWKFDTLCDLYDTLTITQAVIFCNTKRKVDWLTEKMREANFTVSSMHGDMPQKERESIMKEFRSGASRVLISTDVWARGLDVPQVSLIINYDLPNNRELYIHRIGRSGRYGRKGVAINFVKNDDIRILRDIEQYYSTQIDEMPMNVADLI

[2] = molecular target: T2, EIF4A3 (endogenous, HeLa Tet‐off) (human (endogenous in HeLa), UniProt P38919 1-411); assay: co-IP; EIF4A3-IP (IgG-IP as control) from HeLa Tet-off cells and 3B^KO#3 HeLa Tet-off cells, with overexpression of CASC3 wild type or the HDAA mutant; immunoblot
T2 construct: EIF4A3, human, endogenous in HeLa Tet-off cells; also called EJC; source: endogenous, lysate of HeLa Tet-off and 3B^KO#3 HeLa Tet-off cells
T2 sequence (P38919 whole entry): as above

[3] = molecular target: T1, EIF4A3 (endogenous, HCT116); assay: co-IP; EIF4A3-IP (antibody on protein-A Dynabeads; normal rabbit IgG as control) from WT and UPF3B mutant (3B^Δ2BD, 3B^KO) HCT116 lysates; 4°C, washes with 150 mM NaCl; immunoblot

Row | Binder | fold increase of co-IP upon overexpression of wild-type CASC3 [2] [fold] | other results
1 | B1 | – | fold weaker co-IP against UPF3B [1]: ~3 fold
2 | B2 | 2.6 | –
3 | B3 | 3 | –
4 | B4 | – | fold increase of co-IP in UPF3B mutant cells over WT cells [3]: ~2 fold
